Test results reported in PMC10703496.

Key:
[1] = target: ACE2(18–740)-QMP: truncated dimeric human ACE2 (residues 18–740) fused to the N-terminal end of engi (human) (UniProt Q9BYF1); experiment: SPR
[2] = target: ACE2(18–740)-QMP: truncated dimeric human ACE2 (residues 18–740) fused to the N-terminal end of engi (human) (UniProt Q9BYF1); experiment: SPR; pH 5.5

Sequence of soluble His-tagged human neonatal Fc receptor (human FcRn-His) (P55899 24-297): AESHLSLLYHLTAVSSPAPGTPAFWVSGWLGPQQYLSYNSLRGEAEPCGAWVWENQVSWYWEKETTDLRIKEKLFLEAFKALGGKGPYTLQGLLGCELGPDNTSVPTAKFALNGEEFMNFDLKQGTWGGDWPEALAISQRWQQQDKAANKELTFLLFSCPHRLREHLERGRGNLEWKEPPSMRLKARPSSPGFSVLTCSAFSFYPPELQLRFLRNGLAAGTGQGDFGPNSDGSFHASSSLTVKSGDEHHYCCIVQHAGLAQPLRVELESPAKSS
Sequence of soluble His-tagged human neonatal Fc receptor (human FcRn-His) (P61769 21-119): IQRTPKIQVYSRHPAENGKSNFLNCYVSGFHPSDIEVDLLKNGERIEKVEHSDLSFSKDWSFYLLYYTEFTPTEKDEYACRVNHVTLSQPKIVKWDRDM

“soluble His-tagged human neonatal Fc receptor (human FcRn-His) (from UniProt P55899 24-297; P61769 21-119)” was tested, and the kon [1] was 254000 M⁻¹ s⁻¹, the Kd [2] was 0.8 nM and the koff [2] was 0.0002 s⁻¹.
